In paper PMC4605305, “TRAP150 interacts with the RNA-binding domain of PSF and antagonizes splicing of numerous PSF-target genes in T cells” (Nucleic Acids Research, 2015):

T1: hnRNP L (UniProt P14866 1-589)
T1 sequence: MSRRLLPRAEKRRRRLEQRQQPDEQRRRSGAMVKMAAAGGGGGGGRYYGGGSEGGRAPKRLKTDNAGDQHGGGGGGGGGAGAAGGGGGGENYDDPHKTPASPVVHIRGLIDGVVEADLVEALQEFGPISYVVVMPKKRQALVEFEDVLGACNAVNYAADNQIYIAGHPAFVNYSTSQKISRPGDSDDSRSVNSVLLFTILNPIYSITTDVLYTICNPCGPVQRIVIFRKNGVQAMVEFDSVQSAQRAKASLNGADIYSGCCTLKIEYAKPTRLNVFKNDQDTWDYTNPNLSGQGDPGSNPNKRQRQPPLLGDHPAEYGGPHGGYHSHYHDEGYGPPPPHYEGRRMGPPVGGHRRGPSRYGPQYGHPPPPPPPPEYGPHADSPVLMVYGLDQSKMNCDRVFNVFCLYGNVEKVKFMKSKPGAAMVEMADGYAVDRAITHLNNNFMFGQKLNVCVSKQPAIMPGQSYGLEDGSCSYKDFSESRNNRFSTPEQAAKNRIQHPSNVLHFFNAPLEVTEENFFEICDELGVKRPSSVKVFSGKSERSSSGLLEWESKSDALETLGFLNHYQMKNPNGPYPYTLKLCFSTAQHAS

T2: PSF minRRMs (human, UniProt P23246 299-449)
T2 sequence: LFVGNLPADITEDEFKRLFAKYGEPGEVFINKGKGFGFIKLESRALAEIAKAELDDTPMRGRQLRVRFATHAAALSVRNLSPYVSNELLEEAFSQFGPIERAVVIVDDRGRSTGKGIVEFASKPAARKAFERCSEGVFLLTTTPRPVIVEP

T3: PSF exRRMs (human, UniProt P23246 266-484)
T3 sequence: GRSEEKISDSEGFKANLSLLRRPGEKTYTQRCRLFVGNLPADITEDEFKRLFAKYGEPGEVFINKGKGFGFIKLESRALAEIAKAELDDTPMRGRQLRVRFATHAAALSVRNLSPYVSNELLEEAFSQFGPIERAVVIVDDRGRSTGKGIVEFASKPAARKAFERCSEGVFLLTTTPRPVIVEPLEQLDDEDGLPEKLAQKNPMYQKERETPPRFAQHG

T4: PSF exRRM2 (human, UniProt P23246 366-484)
T4 sequence: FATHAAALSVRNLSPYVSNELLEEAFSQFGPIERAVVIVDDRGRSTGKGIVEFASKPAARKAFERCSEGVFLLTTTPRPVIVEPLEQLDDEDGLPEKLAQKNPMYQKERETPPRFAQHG

T5: PSF full-length (PSF-FL) (human, UniProt P23246 1-707)
T5 sequence: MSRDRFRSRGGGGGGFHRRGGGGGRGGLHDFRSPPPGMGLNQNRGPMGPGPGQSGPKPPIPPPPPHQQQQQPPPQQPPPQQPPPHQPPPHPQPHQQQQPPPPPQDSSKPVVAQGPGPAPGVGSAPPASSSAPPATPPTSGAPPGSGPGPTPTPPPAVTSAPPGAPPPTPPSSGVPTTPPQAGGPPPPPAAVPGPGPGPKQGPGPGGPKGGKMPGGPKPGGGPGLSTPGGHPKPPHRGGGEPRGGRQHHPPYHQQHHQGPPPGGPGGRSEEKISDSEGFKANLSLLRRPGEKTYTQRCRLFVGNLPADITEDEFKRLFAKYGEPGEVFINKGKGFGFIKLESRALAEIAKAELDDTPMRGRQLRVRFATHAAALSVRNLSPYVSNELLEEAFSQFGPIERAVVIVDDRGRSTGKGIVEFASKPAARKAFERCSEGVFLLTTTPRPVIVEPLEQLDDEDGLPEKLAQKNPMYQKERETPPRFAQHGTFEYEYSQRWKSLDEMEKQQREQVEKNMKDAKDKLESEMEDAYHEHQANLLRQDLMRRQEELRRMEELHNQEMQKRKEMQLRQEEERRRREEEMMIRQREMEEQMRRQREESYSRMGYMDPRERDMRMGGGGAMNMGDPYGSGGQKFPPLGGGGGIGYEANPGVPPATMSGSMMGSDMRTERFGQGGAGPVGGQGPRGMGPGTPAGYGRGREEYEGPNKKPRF

T6: GST-TRAPΔN (TRAP150 266-955) (UniProt Q9Y2W1 266-955)
T6 construct: pGEX-6-P1; also called GST-TRAP150ΔN; TRAP150-ΔN; source: E. coli Rosetta(DE3)pLysS, purified (glutathione sepharose, SEC); not shown: GST, N-terminal, kept
T6 sequence (looked up): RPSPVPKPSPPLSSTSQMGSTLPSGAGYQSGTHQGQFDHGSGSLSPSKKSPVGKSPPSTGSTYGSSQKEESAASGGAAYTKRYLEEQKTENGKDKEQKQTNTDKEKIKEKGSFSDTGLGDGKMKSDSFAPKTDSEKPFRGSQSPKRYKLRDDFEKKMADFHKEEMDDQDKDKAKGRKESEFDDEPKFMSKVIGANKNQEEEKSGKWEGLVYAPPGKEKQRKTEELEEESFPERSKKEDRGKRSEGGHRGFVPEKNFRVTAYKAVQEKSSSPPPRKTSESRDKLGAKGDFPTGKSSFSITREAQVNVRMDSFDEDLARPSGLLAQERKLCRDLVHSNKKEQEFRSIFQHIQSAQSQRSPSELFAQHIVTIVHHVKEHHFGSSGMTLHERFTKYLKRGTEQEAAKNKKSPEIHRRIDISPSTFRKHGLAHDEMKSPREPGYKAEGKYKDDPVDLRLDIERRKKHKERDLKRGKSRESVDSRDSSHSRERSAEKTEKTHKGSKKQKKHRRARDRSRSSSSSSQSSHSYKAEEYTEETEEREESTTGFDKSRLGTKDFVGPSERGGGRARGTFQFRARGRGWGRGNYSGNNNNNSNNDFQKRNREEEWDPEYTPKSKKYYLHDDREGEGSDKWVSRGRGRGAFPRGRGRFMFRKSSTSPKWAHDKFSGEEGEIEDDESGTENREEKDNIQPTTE

T7: GST-TRAP266–755 (UniProt Q9Y2W1 266-755)
T7 construct: source: E. coli Rosetta(DE3)pLysS, purified (glutathione sepharose, SEC); not shown: GST, N-terminal, kept
T7 sequence (looked up): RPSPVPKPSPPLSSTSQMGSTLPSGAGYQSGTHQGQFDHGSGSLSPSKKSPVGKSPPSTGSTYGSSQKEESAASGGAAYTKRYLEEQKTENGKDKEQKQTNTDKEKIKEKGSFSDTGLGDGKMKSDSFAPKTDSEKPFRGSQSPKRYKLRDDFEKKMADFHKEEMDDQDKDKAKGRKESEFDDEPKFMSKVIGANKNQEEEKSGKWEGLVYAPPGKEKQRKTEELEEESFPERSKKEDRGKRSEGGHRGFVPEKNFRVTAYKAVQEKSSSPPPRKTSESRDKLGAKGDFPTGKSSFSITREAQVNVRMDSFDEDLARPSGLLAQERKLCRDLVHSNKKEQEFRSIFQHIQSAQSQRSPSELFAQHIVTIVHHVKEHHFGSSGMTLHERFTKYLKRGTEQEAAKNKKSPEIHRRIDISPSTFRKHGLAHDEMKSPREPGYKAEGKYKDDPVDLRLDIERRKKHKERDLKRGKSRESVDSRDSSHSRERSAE


How the values were obtained:
hnRNP L = molecular target: T1, hnRNP L; assay: UV crosslinking competition; GST-TRAP150 PID (686-755), no inhibition; UV crosslinking: 12 mM Tris pH 7.5, 120 mM NaCl, 3 mM MgCl2, 1 mM ATP, 20 mM phosphocreatine, 0.1 mM EDTA, 12% glycerol, 1.3% PVA, 25 ng/ul yeast tRNA, 20 ng/ul; settings: protein: recombinant; tags: 6xHis; label: uniform 32P
PSF minRRMs = molecular target: T2, PSF minRRMs; assay: as above; settings: protein: recombinant; tags: 6xHis-FLAG N-term; label: uniform 32P
PSF exRRMs = molecular target: T3, PSF exRRMs; assay: EMSA; UV crosslinking: 12 mM Tris pH 7.5, 120 mM NaCl, 3 mM MgCl2, 1 mM ATP, 20 mM phosphocreatine, 0.1 mM EDTA, 12% glycerol, 1.3% PVA, 25 ng/ul yeast tRNA, 20 ng/ul; settings: protein: recombinant; tags: 6xHis-FLAG N-term; label: uniform 32P
PSF exRRM2 = molecular target: T4, PSF exRRM2; assay: EMSA; affinity similar to exRRMs; UV crosslinking: 12 mM Tris pH 7.5, 120 mM NaCl, 3 mM MgCl2, 1 mM ATP, 20 mM phosphocreatine, 0.1 mM EDTA, 12% glycerol, 1.3% PVA, 25 ng/ul yeast tRNA, 20 ng/ul; settings: protein: recombinant; tags: 6xHis-FLAG N-term; label: uniform 32P
PSF full-length (PSF-FL) = molecular target: T5, PSF full-length (PSF-FL); assay: UV crosslinking; higher affinity than exRRMs; UV crosslinking: 12 mM Tris pH 7.5, 120 mM NaCl, 3 mM MgCl2, 1 mM ATP, 20 mM phosphocreatine, 0.1 mM EDTA, 12% glycerol, 1.3% PVA, 25 ng/ul yeast tRNA, 20 ng/ul; settings: protein: recombinant; tags: 6xHis-FLAG N-term; chain copies: 2; label: uniform 32P
[1] = molecular target: T6, GST-TRAPΔN (TRAP150 266-955); assay: pull-down; 40 ug GST-tagged bait on glutathione sepharose 4B beads; prey incubated 1.5 h at 4°C in PBS; washes with PBS supplemented with 300 mM NaCl; western blot; settings: both partners purified
GST-TRAP266–755 = molecular target: T7, GST-TRAP266–755; assay: as above; settings: both partners purified

binding result [1] | binding result (GST-TRAP266–755) | Binder | binding result (hnRNP L) | binding result (PSF minRRMs) | binding result (PSF exRRMs) | binding result (PSF exRRM2) | binding result (PSF full-length (PSF-FL))
– | – | ESS1 (ssRNA) RNA: ACGCGUCCACUUUCAAGUGACCCCUUACCUACUCACACCACUGCAUUCUCACCCGCAAGCACCUUUGACGCGU | binds | binds | binds | binds | binds
binds | binds | HisFLAG-PSF exRRMs (266-484) (domain or fragment, UniProt P23246 266-484, looked up, also called HisFLAG-exRRMs; HFexRRM1+2; source: E. coli Rosetta(DE3)pLysS, purified (Ni-NTA, SEC); not shown: His6, N-terminal, kept; FLAG, N-terminal, kept) GRSEEKISDSEGFKANLSLLRRPGEKTYTQRCRLFVGNLPADITEDEFKRLFAKYGEPGEVFINKGKGFGFIKLESRALAEIAKAELDDTPMRGRQLRVRFATHAAALSVRNLSPYVSNELLEEAFSQFGPIERAVVIVDDRGRSTGKGIVEFASKPAARKAFERCSEGVFLLTTTPRPVIVEPLEQLDDEDGLPEKLAQKNPMYQKERETPPRFAQHG | – | – | – | – | –
